pIC50: −log10 of the molar value. Like-named read-outs stand apart in the source and are kept apart here.

Assay [1] deals with mouse Ang2 (mouse) (UniProt O35608). The assay is described as follows: competition ELISA: mAng2 binding to mTie2. For orientation: ELISA stands for enzyme-linked immunosorbent assay.
Assay [2] has the same target. As to the kind of experiment: competition ELISA: mAng2 binding to mTie2. This is another data set of the same source.
The target in assay [3] is human Ang2 (human) (UniProt O15123). The assay is described as follows: competition ELISA hAng2/hTie2-Fc.
Assay [4] shares this target. The assay is described as follows: competition ELISA: hAng2 binding to hTie2.
In assay [5] the target is mouse Ang2 (mouse) (UniProt O35608). As to the kind of experiment: competition ELISA: mAng2 binding to mTie2. The source holds these as a separate data set.
Assay [6] has the same target. The assay is described as follows: competition ELISA: mAng2 binding to mTie2. This is another data set of the same source.
The target of assay [7] is human Ang2 (human) (UniProt O15123). As to the kind of experiment: competition ELISA hAng2/hTie2-Fc. The source holds these as a separate data set.
Assay [8] shares this target. The assay is described as follows: competition ELISA hAng2/hTie2-Fc, with 0.5 uM HSA [continued].
Assay [9] shares this target. The assay is described as above. This is another data set of the same source.
The target of assay [10] is mouse DLL4, full length, overexpressed on CHO or HEK293 cells (mouse) (UniProt Q9JI71). The assay is described as follows: competition FMAT: labelled hNotch1/Fc binding to CHO-mDLL4 cells.
Assay [11] has the same target. The assay is described as follows: competition FMAT: labelled hNotch1-Fc on CHO-mDLL4 cells, with 25 uM HSA [continued].
In assay [12] the target is human DLL4, full length, overexpressed on CHO or HEK293 cells (human) (UniProt Q9NR61). As to the kind of experiment: competition FMAT: labelled hNotch1-Fc on CHO-hDLL4 cells, with 25 uM HSA [continued].
The target in assay [13] is mouse DLL4, full length, overexpressed on CHO or HEK293 cells (mouse) (UniProt Q9JI71). As to the kind of experiment: competition FMAT: labelled hNotch1/Fc binding to CHO-mDLL4 cells; panel '+ HSA', HSA not marked for this curve [continued].
The target is the same in assay [14]. As to the kind of experiment: competition FMAT: labelled hNotch1-Fc on CHO-mDLL4 cells, with 25 uM HSA [continued]. The source holds these as a separate data set.
For assay [15], the target named is human DLL4, full length, overexpressed on CHO or HEK293 cells (human) (UniProt Q9NR61). The assay is described as follows: competition FMAT: labelled hNotch1/Fc binding to CHO-hDLL4 cells; panel '+ HSA', HSA not marked for this curve [continued].
Assay [16] shares this target. As to the kind of experiment: FMAT, Notch1/Fc on CHO-hDLL4.
Assay [17] shares this target. The assay is described as follows: competition FMAT: labelled hNotch1-Fc on CHO-hDLL4 cells, with 25 uM HSA [continued]. This is another data set of the same source.
Assay [18] deals with mouse DLL4, full length, overexpressed on CHO or HEK293 cells (mouse) (UniProt Q9JI71). As to the kind of experiment: competition FMAT: labelled hNotch1/Fc binding to CHO-mDLL4 cells; panel '+ HSA', HSA not marked for this curve [continued]. This is another data set of the same source.
The target is the same in assay [19]. As to the kind of experiment: competition FMAT: labelled hNotch1-Fc on CHO-mDLL4 cells.
Assay [20] addresses human DLL4, full length, overexpressed on CHO or HEK293 cells (human) (UniProt Q9NR61). The assay is described as follows: competition FMAT: labelled hNotch1-Fc on CHO-hDLL4 cells.
Assay [21] addresses recombinant human DLL4 extracellular domain, C-terminally His-tagged (R&D Systems) (human) (UniProt Q9NR61). As to the kind of experiment: hDLL4/hNotch1-Fc competition ELISA.
In assay [22] the target is mouse DLL4, full length, overexpressed on CHO or HEK293 cells (mouse) (UniProt Q9JI71). As to the kind of experiment: FMAT, Notch1/Fc on CHO-mDLL4.
For assay [23] the target is unchanged. The assay is described as follows: competition FMAT: labelled hNotch1-Fc on CHO-mDLL4 cells. This is another data set of the same source.
Assay [24] has as its target recombinant mouse DLL4 extracellular domain, C-terminally His-tagged (R&D Systems) (mouse) (UniProt Q9JI71). As to the kind of experiment: binding ELISA on coated rmDLL4.
Assay [25] addresses human DLL4, full length, overexpressed on CHO or HEK293 cells (human) (UniProt Q9NR61). The assay is described as follows: competition FMAT: labelled hNotch1/Fc binding to CHO-hDLL4 cells.
The target is the same in assay [26]. As to the kind of experiment: cell-based or functional assay.
The target is the same in assay [27]. The assay is described as follows: competition FMAT: labelled hNotch1-Fc on CHO-hDLL4 cells. This is another data set of the same source.
In assay [28] the target is mouse DLL4, full length, overexpressed on CHO or HEK293 cells (mouse) (UniProt Q9JI71). As to the kind of experiment: competition FMAT: labelled hNotch1/Fc binding to CHO-mDLL4 cells. This is another data set of the same source.
For assay [29], the target named is recombinant human DLL4 extracellular domain, C-terminally His-tagged (R&D Systems) (human) (UniProt Q9NR61). The assay is described as follows: competition ELISA: 8 nM biotinylated hDLL4 + binder, residual binding to coated hNotch1-Fc.
Assay [30] has the same target. The description is as above. The source holds these as a separate data set.
The target is the same in assay [31]. As to the kind of experiment: hDLL4/hNotch1 competition AlphaScreen.
The target is the same in assay [32]. The assay is described as follows: competition ELISA: 8 nM biotinylated hDLL4 binding to coated hNotch1/Fc.
Assay [33] shares this target. The assay is described as follows: binding ELISA on coated rhDLL4.

Sequence of mouse DLL4, full length, overexpressed on CHO or HEK293 cells (mouse) (Q9JI71 27-686): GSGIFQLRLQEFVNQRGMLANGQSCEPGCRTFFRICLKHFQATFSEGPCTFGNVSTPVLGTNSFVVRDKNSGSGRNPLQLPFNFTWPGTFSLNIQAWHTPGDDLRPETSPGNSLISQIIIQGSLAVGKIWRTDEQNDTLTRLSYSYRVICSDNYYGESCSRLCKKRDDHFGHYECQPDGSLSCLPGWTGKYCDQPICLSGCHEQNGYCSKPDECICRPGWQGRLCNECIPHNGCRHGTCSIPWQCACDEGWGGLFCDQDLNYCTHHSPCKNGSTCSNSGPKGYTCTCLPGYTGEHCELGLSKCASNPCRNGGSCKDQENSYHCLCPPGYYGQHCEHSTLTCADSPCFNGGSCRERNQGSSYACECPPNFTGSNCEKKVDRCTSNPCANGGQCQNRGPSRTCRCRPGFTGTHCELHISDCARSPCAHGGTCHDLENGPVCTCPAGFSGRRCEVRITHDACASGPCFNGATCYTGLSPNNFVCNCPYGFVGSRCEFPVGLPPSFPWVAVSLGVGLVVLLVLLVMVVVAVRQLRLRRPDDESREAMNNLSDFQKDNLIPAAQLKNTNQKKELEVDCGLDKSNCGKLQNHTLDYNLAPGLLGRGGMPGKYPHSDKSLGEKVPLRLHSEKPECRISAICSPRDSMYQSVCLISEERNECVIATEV
Sequence of human Ang2 (human) (O15123 19-496 limits assumed): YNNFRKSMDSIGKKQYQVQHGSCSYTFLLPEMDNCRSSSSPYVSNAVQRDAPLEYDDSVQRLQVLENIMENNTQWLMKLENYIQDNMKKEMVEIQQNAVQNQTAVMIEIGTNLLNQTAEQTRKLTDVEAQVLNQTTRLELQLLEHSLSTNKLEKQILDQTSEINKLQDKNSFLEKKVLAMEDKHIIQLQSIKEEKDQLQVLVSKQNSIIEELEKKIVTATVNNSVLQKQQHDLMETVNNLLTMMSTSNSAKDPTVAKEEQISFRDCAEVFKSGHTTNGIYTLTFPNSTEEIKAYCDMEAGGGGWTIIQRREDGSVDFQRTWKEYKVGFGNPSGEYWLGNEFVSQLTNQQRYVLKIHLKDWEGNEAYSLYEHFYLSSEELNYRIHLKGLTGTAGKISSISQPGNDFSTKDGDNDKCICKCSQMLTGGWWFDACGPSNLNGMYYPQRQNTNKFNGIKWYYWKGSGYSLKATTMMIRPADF
Sequence of mouse Ang2 (mouse) (O35608 19-496 limits assumed): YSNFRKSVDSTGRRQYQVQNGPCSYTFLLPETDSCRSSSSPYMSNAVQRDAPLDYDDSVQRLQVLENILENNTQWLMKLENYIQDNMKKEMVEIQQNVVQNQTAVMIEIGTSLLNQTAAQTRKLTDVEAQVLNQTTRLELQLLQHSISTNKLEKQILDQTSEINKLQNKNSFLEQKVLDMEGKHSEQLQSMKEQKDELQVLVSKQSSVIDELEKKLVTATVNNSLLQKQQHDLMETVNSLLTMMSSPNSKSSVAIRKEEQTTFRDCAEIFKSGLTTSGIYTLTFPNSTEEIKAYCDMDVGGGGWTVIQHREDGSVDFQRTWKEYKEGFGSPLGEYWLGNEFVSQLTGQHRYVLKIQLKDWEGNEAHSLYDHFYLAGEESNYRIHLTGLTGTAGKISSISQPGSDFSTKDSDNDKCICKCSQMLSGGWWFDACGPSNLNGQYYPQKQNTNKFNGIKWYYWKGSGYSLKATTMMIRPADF
Sequence of recombinant mouse DLL4 extracellular domain, C-terminally His-tagged (R&D Systems) (mouse) (Q9JI71 27-525 limits assumed): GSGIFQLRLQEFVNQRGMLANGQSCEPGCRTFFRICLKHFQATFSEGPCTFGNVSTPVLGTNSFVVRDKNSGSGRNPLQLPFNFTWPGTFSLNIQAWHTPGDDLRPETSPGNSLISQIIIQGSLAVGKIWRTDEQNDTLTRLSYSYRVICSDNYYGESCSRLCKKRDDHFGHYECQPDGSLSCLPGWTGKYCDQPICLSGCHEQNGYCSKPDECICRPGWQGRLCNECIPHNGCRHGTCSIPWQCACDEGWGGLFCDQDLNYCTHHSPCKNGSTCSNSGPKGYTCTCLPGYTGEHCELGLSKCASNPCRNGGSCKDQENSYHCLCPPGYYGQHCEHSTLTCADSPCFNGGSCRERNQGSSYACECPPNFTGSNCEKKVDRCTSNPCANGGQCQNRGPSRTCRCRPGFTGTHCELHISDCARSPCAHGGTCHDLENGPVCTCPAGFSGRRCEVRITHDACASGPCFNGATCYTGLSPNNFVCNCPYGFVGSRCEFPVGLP

On to AMG386, for which the IC50 (read off the curve) with mouse Ang2 (mouse) [1] was determined as 0.003 nM; in the assay with mouse Ang2 (mouse) [2], 0.007 nM; with human Ang2 (human) [3] it was 0.005 nM; in the assay with human Ang2 (human) [4] it was 0.003 nM; with mouse Ang2 (mouse) [5] it was 0.004 nM; with mouse Ang2 (mouse) [6], 0.009 nM. The IC50 (read off the curve) with human Ang2 (human) [7] turned out to be 0.004 nM; in the assay with human Ang2 (human) [8], 0.004 nM; with human Ang2 (human) [9] it was 0.005 nM.

As a reminder, the pIC50 is the IC50 on a negative log10 scale, so that one unit is a factor of ten. Broadly, the EC50 (read off the curve) is the concentration needed to bring the measured effect to its halfway point. With “anti-DLL4 Fab fragment (Fab of the Genentech DII4 mAb of US 2008/0014196)”, the IC50 (read off the curve) in [10] was found to be 2 nM; in assay [11] it was 2 nM; in assay [12] it was 7 nM; in assay [13] it was 2 nM; in assay [14], 1 nM; in [15], 3 nM. Moreover, the IC50 (read off the curve) in [17] worked out at 4 nM; in assay [18] it was 3 nM; in assay [19], 1 nM; in assay [20] it was 7 nM; in assay [23], 2 nM; in [25] it was 4 nM. Also, the IC50 (read off the curve) in assay [27] stood at 5 nM; in assay [28], 3 nM; in assay [29], 4 nM; in assay [30], 5 nM; in assay [32] it was 3 nM. Further, the pIC50 was 8.27 in assay [16], 9.15 in [21], 8.64 in assay [22] and 9.52 in assay [31]. The EC50 (read off the curve) in [24] came out at 0.9 nM; in assay [33] it was 0.8 nM. This substance showed an IC50, DLL4/Notch1 reporter assay (luciferase; co-culture with HEK293-hDII4) in [26] of 133 nM.

The record behind these values is patent US20130078247A1.
